Assay results taken from patent US20260209352A1 (Adimab, published 2026).

Assays:
[1] = molecular target: T1, Cynomolgus CD3 on Cyno CD3+ Jurkat cells (cynomolgus, UniProt Q95LI5 22-198); assay: cell binding, cyno CD3+ Jurkat cells
T1 construct: whole, on cells; CD3 on cells; also called cCD3

[2] = molecular target: T2, Human CD3 on Human CD3+ Jurkat cells (human, UniProt P07766 23-207); assay: cell binding hCD3, fold over background
T2 construct: whole, on cells; CD3 complex on cells; also called hCD3
T2 sequence (P07766 23-207): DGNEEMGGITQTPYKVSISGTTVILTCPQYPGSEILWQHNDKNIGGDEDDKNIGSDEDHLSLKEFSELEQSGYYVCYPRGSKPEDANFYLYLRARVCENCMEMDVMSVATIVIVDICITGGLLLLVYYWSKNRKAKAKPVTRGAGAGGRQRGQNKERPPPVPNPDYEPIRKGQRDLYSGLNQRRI

[3] = molecular target: Human CD3εδ-Fc (human) (UniProt P04234); assay: KD of scFv-Fc or IgG on human CD3εδ-Fc; instrument not given
Sequence of Human CD3εδ-Fc (human) (chain, as listed by the source mutant, chain 1 of 2): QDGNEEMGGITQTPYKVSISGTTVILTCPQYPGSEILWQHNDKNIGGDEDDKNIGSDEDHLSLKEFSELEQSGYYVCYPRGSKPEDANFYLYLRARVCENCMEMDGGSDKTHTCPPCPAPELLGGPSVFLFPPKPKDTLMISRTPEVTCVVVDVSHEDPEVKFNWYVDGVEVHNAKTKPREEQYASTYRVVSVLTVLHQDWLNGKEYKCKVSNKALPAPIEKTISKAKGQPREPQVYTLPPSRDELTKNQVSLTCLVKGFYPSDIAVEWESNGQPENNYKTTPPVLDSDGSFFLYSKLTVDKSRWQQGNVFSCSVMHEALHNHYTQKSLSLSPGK
Sequence of Human CD3εδ-Fc (human) (P04234 22-105, stated change not applied, chain 2 of 2): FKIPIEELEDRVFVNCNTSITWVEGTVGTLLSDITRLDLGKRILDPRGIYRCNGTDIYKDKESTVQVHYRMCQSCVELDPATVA

[4] = molecular target: Human CD3εδ-Fc (human) (UniProt P04234); assay: Biacore SPR, monovalent KD, biotinylated human CD3εδ-Fc
[5] = molecular target: T2, Human CD3 on Human CD3+ Jurkat cells; assay: cell binding, human CD3+ Jurkat cells
[6] = molecular target: T1, Cynomolgus CD3 on Cyno CD3+ Jurkat cells; assay: cell binding cCD3, fold over background
[7] = molecular target: Cyno CD3εδ-Fc (cynomolgus) (UniProt Q95LI8); assay: KD of scFv-Fc or IgG on cyno CD3εδ-Fc; instrument not given
Sequence of Cyno CD3εδ-Fc (cynomolgus) (chain, as listed by the source mutant, chain 1 of 2): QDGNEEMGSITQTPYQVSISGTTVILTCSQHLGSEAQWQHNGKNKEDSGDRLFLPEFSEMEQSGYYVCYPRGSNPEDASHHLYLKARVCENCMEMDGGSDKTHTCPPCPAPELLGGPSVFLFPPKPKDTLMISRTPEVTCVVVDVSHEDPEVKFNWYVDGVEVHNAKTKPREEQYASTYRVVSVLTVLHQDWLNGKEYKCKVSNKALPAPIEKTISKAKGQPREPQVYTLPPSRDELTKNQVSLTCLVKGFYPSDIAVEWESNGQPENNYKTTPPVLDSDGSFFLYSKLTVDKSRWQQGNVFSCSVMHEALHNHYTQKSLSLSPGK
Sequence of Cyno CD3εδ-Fc (cynomolgus) (Q95LI8 22-105, stated change not applied, chain 2 of 2): as the sequence (P04234 22-105, stated change not applied, chain 2 of 2) above, with I5V, N15K, I20V, S32T, D33N, I34N, T64A, S74N, V83L counted along it

T1 sequence (Q95LI5 22-198): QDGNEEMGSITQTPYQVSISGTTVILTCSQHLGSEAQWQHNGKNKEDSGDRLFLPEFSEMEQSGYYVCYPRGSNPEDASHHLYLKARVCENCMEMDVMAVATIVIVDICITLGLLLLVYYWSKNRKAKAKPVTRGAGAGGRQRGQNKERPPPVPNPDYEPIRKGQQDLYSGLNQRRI

Row | Cell Binding Fold Over Background (FOB) [1] [FOB] | Cell Binding hCD3 (FOB) [2] [FOB] | Kd [3] [nM] | Kd [4] [nM] | Cell Binding Fold Over Background (FOB) [5] [FOB] | Cell Binding cCD3 (FOB) [6] [FOB] | Kd [7] [nM] | Binder
1 | 16 | 36 | 0.2 | 0.47 | 14 | 122 | 2 | ADI-42594 (antibody, V domains shown, also called Ab1) VH: QVQLVQSGAEVKKPGASVKVSCKASGFNIKDYYMHWVRQAPGQRLEWIGWIDLENANTVYDAKFQGRVTITRDTSASTAYMELSSLRSEDTAVYYCARDAYGRYFYDVWGQGTLVTVSS VL: DIVMTQSPDSLAVSLGERATINCKSSQSLLNARTGKNYLAWYQQKPGQPPKLLIYWASTRESGVPDRFSGSGSGTDFTLTISSLQAEDVAVYYCKQSYFRRTFGGGTKVEIK
2 | 30 | 19 | 0.13 | 0.12 | 18 | 112 | 1.7 | ADI-45959 (antibody, V domains shown, also called Ab13) VH: QVQLVQSGAEVKKPGASVKVSCKASGFNIKDYYMHWVRQAPGQRLEWIGWIDLENANTVYDAKFQGRVTITRDTSASTAYMELSSLRSEDTAVYYCARDAYGRYFYDVWGQGTLVTVSS VL: DIVMSQSPDSLAVSLGERATINCKSSQSLLNARTGKNYLAWYQQKPGQPPKLLIYWASTRSSGVPDRFSGSGSGTDFTLTISSLQAEDVAVYYCVQSYFRRTFGGGTKVEIK
3 | 17 | 86 | 0.067 | 0.21 | 10 | 142 | 1.4 | ADI-45975 (antibody, V domains shown, also called Ab11) VH: QVQLVQSGAEVKKPGASVKVSCKASGFNIKDYYMHWVRQAPGQRLEWIGWIDLENANTVYDAKFQGRVTITRDTSASTAYMELSSLRSEDTAVYYCARDAYGQYFYDVWGQGTLVTVSS VL: DIVMTQSPDSLAVSLGERATINCKSSQSLLNARTRKNYLAWYQQKPGQPPKLLIYWASTRESGVPDRFSGSGSGTDFTLTISSLQAEDVAVYYCKQSYFRRTFGGGTKVEIK
4 |  | 59 | 0.091 |  |  | 159 | 1.1 | ADI-45977 (antibody, V domains shown, also called Ab14) VH: QVQLVQSGAEVKKPGASVKVSCKASGFNIKDYYMHWVRQAPGQRLEWIGWIDLENANTVYDAKLQGRVTITRDTSASTAYMELSSLGSEDTAVYYCARDAYGRYFYDVWGQGTLVTVSS VL: DIVMTQSPDSLAVSLGERATINCKSSQSLLNARTGKNYLAWYQQKPGQPPKLLIYWASTRESGVPDRFSGSGSGTDFTLTISSLQAEDVAVYYCTQSYFRRTFGGGTKVEIK
5 |  | 25 | 0.074 |  |  | 37 | 1.2 | ADI-45978 (antibody, V domains shown, also called Ab15) VH: QVQLVQSGAEVKKPGASVKVSCKASGFNIKDYYMHWVRQAPGQRLEWLGWIDLENANTVYDAKFQGRVTITRDTSASTAYMELSSLRSEDTAVYYCARDAYGRYFYDVWGQGTLVTVSS VL: DIVMTQSPDSLAVSLGERATINCKSSQSLLNARTGKNYLAWYQQKPGQPPKLLIYWASARESGVPDRFSGSGSGTDFTLTISSLQAEDVAVYYCTQSYFRRTFGGGTKVEIK
6 |  | 54 | 0.19 |  |  | 72 | 1.7 | ADI-45979 (antibody, V domains shown, also called Ab16) VH: QVQLVQSGAEVKKPGASVKVSCKASGFNIKDYYMHWVRQAPGQRLEWIGWIDLENANTVYDAKFQGRVTITRDTSASTAYMELSSLRSEDTAVYYCARDAYGRYFYDVWGQGTLVTVSS VL: DIVMTQSPDSLAVSLGERATINCKSSQELLNARTGKNYLAWYQQKPGQPPKLLIYWASTRESGVPDRFSGSGSGTDFTLTISSLQAEDVAVYYCKQSYFRRTFGGGTKVEIK
7 |  | 8 | 0.08 |  |  | 85 | 1.2 | ADI-45980 (antibody, V domains shown, also called Ab17) VH: QVQLVQSGAEVKKPGASVKVSCKASGFNIKDYYMHWVRQAPGQRLEWIGWIDLENANTVYDAKFQGRVTITRDTSASTAYMELNSLRSEDTAVYYCARDAYGRYFYDVWGQGTLVTVSS VL: DIVMTQSPDSLAVSLGERATINCKSSQSLLNARTGKNYLAWYQQKPGQPPKLLIYWAFTRESGVPDRFSGSGSGTDFTLTISSLQAEDVAVYYCTQSYFRRTFGGGTKVEIK
8 |  | 33 | 0.089 |  |  | 78 | 1.6 | ADI-45981 (antibody, V domains shown, also called Ab18) VH: QVQLVQSGAEVKKPGASVKVSCKASGFNIKDYYMHWVRQAPGQRLEWIGWIDLENANTVYDAKFQGRVTITRDTSASTAYMELSSLRSEDTAVYYCARDAYGRYFYDVWGQGTLVTVSS VL: DIVMTQSPDSLAVSLGERATINCKSSQSLLNARTGKNYLAWYQQKPGQPPKLLIYWASMRESGVPDRFSGSRSGTDFTLTISSLQAEDVAVYYCSQSYFRRTFGGGTKVEIK
9 |  | 24 | 0.12 |  |  | 31 | 1.4 | ADI-45982 (antibody, V domains shown, also called Ab19) VH: QVQLVQSGAEVKKPGASVKVSCKASGFNIKDYYMHWVRQAPGQRLEWIGWIDLENANTVYDAKFQGRVTITRDTSASTAYMELSSLRSEDTAVYYCARDAYGRYFYDVWGQGTLVTVSS VL: DIVMTQSPDSLAVSLGERATINCKSSQSLLNARTGKNYLAWYQQKPGQPPKLLIYWASTRENGVPDRFSGSGSGTDFTLTISSLQAEDVAVYYCTQSYFRRTFGGGTKVEIK
10 |  | 24 | 0.23 |  |  | 101 | 2 | ADI-45983 (antibody, V domains shown, also called Ab20) VH: QVQLVQSGAEVKKPGASVKVSCKASGFNIKDYYMHWVRQAPGQRLEWIGWIDLENANTVYDAKFQGRVTITRDTSAGTAYMELSSLRSEDTAVYYCARDAYGRYFYDVWGQGTLVTVSS VL: DIVMTQSPDSLAVSLGERATINCKSSQSLLNARTMKNYLAWYQQKPGQPPKLLIYAASTRESGVPDRFSGSGSGTDFTLTISSLQAEDVAVYYCAQSYFRRTFGGGTKVEIK
11 |  | 88 | 0.095 |  |  | 92 | 1.3 | ADI-45984 (antibody, V domains shown, also called Ab21) VH: QVQLVQSGAEVKKPGASVKVSCKASGFNIKDYYMHWVRQAPGQRLEWIGWIDLENANTVYDAKFQGRVTITRDTSASTAYMELSSLRSEDTAVYYCARDAYGRYFYDVWGQGTLVTVSS VL: DIVMTQSPDSLAVSLGERATINCKSSQSLLNARTRKNYLAWYQQKPGQPPKLLIYWASTRESGVPDRFSGSGSGTDFTLTISSLQAEDVAVYYCVQSYFRRTFGGGTKVEIK
12 |  | 21 | 0.08 |  |  | 23 | 1.2 | ADI-45985 (antibody, V domains shown, also called Ab22) VH: QVQLVQSGAEVKKPGASVKVSCKASGFNIKDYYMHWVRQAPGQRLEWIGWIDLENANTVYDAKFQGRVTITRDTSASTAYMELSSLRSEDTAVYYCARDAYGRYFYDVWGQGTLVTVSS VL: DIVMTQSPDSLAVSLGERATINCKTSQSLLNARTNKNYLAWYQQKPGQPPKLLIYWASTRESGVPDRFSGSGSGTDFTLTISSLQAEDVAVYYCVQSYFRRTFGGGTKVEIK
13 | 20 | 24 | 0.97 | 0.25 | 13 | 80 |  | ADI-46357 (antibody, V domains shown, also called Ab30) VH: QVQLVQSGAEVKKPGASVKVSCKASGFNIKDYYMHWVRQAPGQRLEWIGWIDLENANTVYDAKFQGRVTITRDTSASTAYMELSSLRSEDTAVYYCARDAYGRYFYDVWGQGTLVTVSS VL: DIVMTQSPDSLAVSLGERATINCKSSQSLLNARTGKNYLAWYQQKPGQPPKLLIYWASTRESGVPDRFSGSGSGTDFTLTISSLQAEDVAVYYCAQSYFRRTFGGGTKVEIK
14 | 28 | 43 | 0.89 | 0.22 | 15 | 102 |  | ADI-46359 (antibody, V domains shown, also called Ab42) VH: QVQLVQSGAEVKKPGASVKVSCKASGFNIKDYYMHWVRQAPGQRLEWIGWIDLENANTVYDAKFQGRVTITRDTSASTAYMELSSLRSEDTAVYYCARDAYGQYFYDVWGQGTLVTVSS VL: DIVMTQSPDSLAVSLGERATINCKSSQSLLNARTGKNYLAWYQQKPGQPPKLLIYWASTRESGVPDRFSGSGSGTDFTLTISSLQAEDVAVYYCTQSYFRRTFGGGTKVEIK
15 | 32 | 43 | 0.93 | 0.23 | 16 | 108 |  | ADI-46366 (antibody, V domains shown, also called Ab50) VH: QVQLVQSGAEVKKPGASVKVSCKASGFNIKDYYMHWVRQAPGQRLEWIGWIDLENANTVYDAKFQGRVTITRDTSASTAYMELSSLRSEDTAVYYCARDAYGQYFYDVWGQGTLVTVSS VL: DIVMTQSPDSLAVSLGERATINCKSSQSLLNARTGKNYLAWYQQKPGQPPKLLIYWASTRESGVPDRFSGSGSGTDFTLTISSLQAEDVAVYYCVQSYFRRTFGGGTKVEIK
16 | 30 | 22 | 0.92 | 0.12 | 17 | 91 |  | ADI-46378 (antibody, V domains shown, also called Ab40) VH: QVQLVQSGAEVKKPGASVKVSCKASGFNIKDYYMHWVRQAPGQRLEWIGWIDLENANTVYDAKFQGRVTITRDTSASAAYMELSSLRSEDTAVYYCARDAYGRYFYDVWGQGTLVTVSS VL: DIVMTQSPDSLAVSLGERATINCKSSQSLLNARTRKNYLAWYQQKPGRPPKLLIYWASTRESGVPDRFSGSGSGTDFTLTISSLQAEDVAVYYCVQSYFRRTFGGGTKVEIK
